This note sets out measurements from patent publication CN110734897A (ZHEJIANG BLUE SHIELD PHARMA CO LTD, dated 2020).

The target in the assay is T1, 重组人SIRPα-his融合蛋白 (Acro Biosystems SIA-H5225) (human, UniProt P78324 31-370).
T1 construct: Bought reagent; also called 人SIRPα重组蛋白; not shown: his tag
Nature of the assay: indirect ELISA screen of hybridoma supernatants, SIRPα-his coated. On the technique in general: An ELISA detects its analyte on a solid surface through an enzyme-linked reagent.

T1 sequence (P78324 31-370 limits assumed): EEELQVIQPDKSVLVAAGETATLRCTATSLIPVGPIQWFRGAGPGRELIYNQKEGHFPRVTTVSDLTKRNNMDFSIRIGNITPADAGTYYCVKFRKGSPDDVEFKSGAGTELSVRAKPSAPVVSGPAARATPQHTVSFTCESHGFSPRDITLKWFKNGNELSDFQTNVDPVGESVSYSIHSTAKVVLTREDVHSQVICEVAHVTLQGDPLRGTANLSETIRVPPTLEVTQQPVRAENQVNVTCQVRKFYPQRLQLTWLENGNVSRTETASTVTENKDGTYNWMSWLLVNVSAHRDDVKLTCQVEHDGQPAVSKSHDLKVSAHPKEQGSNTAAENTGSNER

B1: 杂交瘤细胞株12G6产生的抗人SIRPα单克隆抗体 (antibody, IgG2b, V domains shown)
VH: QIQLVQSGPELKKPGETVKISCKASGYTFTNYGMHWVKQAPGKDLKWMGWINTYTGEPTNADDFKGRFAFSLETSDRTAFLQINNLKNEDTATYFCARGHHYGNYAWFAYWGQGTLVTVSA
VL: DIVMTQSHKFMSTSVGDRVSITCKASQDVSLAVAWYQQKPGQSPKVLIYWASTRHTGVPDRFAGSGSGTDYTLTISSVQAEDLALYYCQQHYSTPWTFGGGTKLEIN
notes: also called 纯化的抗人SIRPα单克隆抗体
For the molecule B1, the binding result is listed as “binds”.
